Reference: the supplement of paper PMC7877785
± gives the uncertainty stated by the source.

Experiment: self-splicing fitness, log relative to wild type (ln ratio); higher = more splicing; Tetrahymena group I intron in knt gene, E. coli kanamycin selection, DiMSum; sequences stand for … in CUCUCU…GGAGGGAAAAGUUAUCAGGCAUGCACCUGGUAGCUAGUCUUUAAACCAAUAGAUUGCAUCGGUUUAAAAGGCAAGACCGUCAAAUUGCGGGAAAGGGGUCAACAGCCGUUCAGUACCAAGUCUCAGGGGAAACUUUGAGAUGGCCUUGCAAAGGGUAUGGUAAUAAGCUGACGGACAUGGUCCUAACCACGCAGCCAAGUCCUAAGUCAACAGAUCUUCUGUUGAUAUGGAUGCAGUUCACAGACUAAAUGUCGGUCGGGGAAGAUGUAUUCUUCUCAUAAGAUAUAGUCGGACCUCUCCUUAAUGGGAGCUAGCGGAUGAAGUGAUGCAACACUGGAGCCGCUGGGAACUAAUUUGUAUGCGAAAGUAUAUUGAUUAGUUUUGGAGUACUCGUGGUCG
Outline: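 Colonies from six replicate transformations of E. coli BL21(DE3) were pooled and amplicon-sequenced on an Illumina HiSeq 2500. The library placed an intron with all eight P1ex-region nucleotides randomised inside the knt kanamycin-resistance gene on pET-22b(+), and cells grew overnight at 37°C or 30°C on LB agar with or without 25 μg/mL kanamycin (plus 100 μg/mL carbenicillin, 50 μM IPTG, 0.2% rhamnose). Fitness is the DiMSum error-weighted combination of wild-type-normalised replicate fold changes, kanamycin versus none.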

Sequence: UACAAGCAAUAUUACGCCUG
- self-splicing fitness (ln) (30 °C): -0.585 ± 0.081
- self-splicing fitness (ln) (37 °C): 0.17 ± 0.11

Sequence: CCUAAGCAAUAUUACGUCGC
- self-splicing fitness (ln) (30 °C): -2.21 ± 0.16
- self-splicing fitness (ln) (37 °C): -1.85 ± 0.2

Sequence: AGCUAGCAAUAUUACGCUCG
- self-splicing fitness (ln) (30 °C): -2.6 ± 0.19
- self-splicing fitness (ln) (37 °C): -1.53 ± 0.17

Sequence: CGCUAGCAAUAUUACGCGGA
- self-splicing fitness (ln) (30 °C): -3.21 ± 0.17
- self-splicing fitness (ln) (37 °C): -1.73 ± 0.099

Sequence: CCGUAGCAAUAUUACGCGGC
- self-splicing fitness (ln) (30 °C): -2.94 ± 0.19
- self-splicing fitness (ln) (37 °C): -2.51 ± 0.27

Sequence: UCUUAGCAAUAUUACGUACC
- self-splicing fitness (ln) (30 °C): -1.26 ± 0.48
- self-splicing fitness (ln) (37 °C): -1.53 ± 0.41

Sequence: CUAGAGCAAUAUUACGGUCA
- self-splicing fitness (ln) (30 °C): -3.55 ± 0.23
- self-splicing fitness (ln) (37 °C): -2.47 ± 0.44

Sequence: GGGCAGCAAUAUUACGCCCG
- self-splicing fitness (ln) (30 °C): -2.33 ± 0.23

Sequence: CACCAGCAAUAUUACGCCUC
- self-splicing fitness (ln) (30 °C): -3.14 ± 0.23
- self-splicing fitness (ln) (37 °C): -1.9 ± 0.2

Sequence: AGCGAGCAAUAUUACGGGAA
- self-splicing fitness (ln) (37 °C): -1.86 ± 0.27

Sequence: CCGUAGCAAUAUUACGAAUU
- self-splicing fitness (ln) (30 °C): -3.75 ± 0.25
- self-splicing fitness (ln) (37 °C): -2.85 ± 0.34

Sequence: GAGGAGCAAUAUUACGUAGG
- self-splicing fitness (ln) (30 °C): -2.42 ± 0.42
- self-splicing fitness (ln) (37 °C): -1.27 ± 0.23

Sequence: UGCAAGCAAUAUUACGAAGA
- self-splicing fitness (ln) (30 °C): -1.99 ± 0.27
- self-splicing fitness (ln) (37 °C): -2.3 ± 0.31

Sequence: GGCUAGCAAUAUUACGGUCA
- self-splicing fitness (ln) (30 °C): -0.918 ± 0.1
- self-splicing fitness (ln) (37 °C): -0.851 ± 0.085

Sequence: AGCAAGCAAUAUUACGCGUU
- self-splicing fitness (ln) (30 °C): -2.89 ± 0.17
- self-splicing fitness (ln) (37 °C): -2.44 ± 0.19

Sequence: AGAUAGCAAUAUUACGUAAA
- self-splicing fitness (ln) (30 °C): -2.53 ± 0.17
- self-splicing fitness (ln) (37 °C): -1.74 ± 0.14

Sequence: UGGGAGCAAUAUUACGGCAU
- self-splicing fitness (ln) (37 °C): -2.47 ± 0.45

Sequence: CCGAAGCAAUAUUACGGAUG
- self-splicing fitness (ln) (30 °C): -2.94 ± 0.19
- self-splicing fitness (ln) (37 °C): -0.504 ± 0.095

Sequence: CCUUAGCAAUAUUACGAGUU
- self-splicing fitness (ln) (30 °C): -3.96 ± 0.27
- self-splicing fitness (ln) (37 °C): -2.56 ± 0.21

Sequence: GGUAAGCAAUAUUACGGGAA
- self-splicing fitness (ln) (30 °C): -2.54 ± 0.39
- self-splicing fitness (ln) (37 °C): -2.06 ± 0.32

Sequence: AAAGAGCAAUAUUACGUAGA
- self-splicing fitness (ln) (30 °C): -3.25 ± 0.24
- self-splicing fitness (ln) (37 °C): -1.7 ± 0.2

Sequence: UAAUAGCAAUAUUACGCUGA
- self-splicing fitness (ln) (30 °C): -2.81 ± 0.28
- self-splicing fitness (ln) (37 °C): -1.23 ± 0.15

Sequence: UUGGAGCAAUAUUACGUCUG
- self-splicing fitness (ln) (30 °C): -2.66 ± 0.17
- self-splicing fitness (ln) (37 °C): -0.914 ± 0.22

Sequence: CCGCAGCAAUAUUACGCCAA
- self-splicing fitness (ln) (30 °C): -3.73 ± 0.38
- self-splicing fitness (ln) (37 °C): -2.06 ± 0.34

Sequence: ACGUAGCAAUAUUACGAUUG
- self-splicing fitness (ln) (30 °C): -2.78 ± 0.11
- self-splicing fitness (ln) (37 °C): -1.99 ± 0.12

Sequence: UCGUAGCAAUAUUACGAGUG
- self-splicing fitness (ln) (30 °C): -3.62 ± 0.32
- self-splicing fitness (ln) (37 °C): -3.09 ± 0.3

Sequence: CCUGAGCAAUAUUACGCCAA
- self-splicing fitness (ln) (30 °C): -2.85 ± 0.44

Sequence: AUUGAGCAAUAUUACGUGAC
- self-splicing fitness (ln) (37 °C): -1.61 ± 0.45

Sequence: UCAUAGCAAUAUUACGCCCG
- self-splicing fitness (ln) (30 °C): -0.515 ± 0.21
- self-splicing fitness (ln) (37 °C): -0.292 ± 0.3

Sequence: UGGGAGCAAUAUUACGUACU
- self-splicing fitness (ln) (37 °C): -2.02 ± 0.33

Sequence: UAACAGCAAUAUUACGCUGG
- self-splicing fitness (ln) (30 °C): -3.29 ± 0.17
- self-splicing fitness (ln) (37 °C): -2.42 ± 0.21

Sequence: AUAGAGCAAUAUUACGAUGU
- self-splicing fitness (ln) (30 °C): -0.266 ± 0.067
- self-splicing fitness (ln) (37 °C): 0.423 ± 0.095

Sequence: CGCAAGCAAUAUUACGGCUA
- self-splicing fitness (ln) (30 °C): -1.15 ± 0.063
- self-splicing fitness (ln) (37 °C): -0.556 ± 0.076

Sequence: AAUGAGCAAUAUUACGGGUA
- self-splicing fitness (ln) (37 °C): -0.858 ± 0.23

Sequence: AUUUAGCAAUAUUACGGCAC
- self-splicing fitness (ln) (30 °C): -0.95 ± 0.27

Sequence: GUCCAGCAAUAUUACGCUAA
- self-splicing fitness (ln) (30 °C): -0.5 ± 0.11
- self-splicing fitness (ln) (37 °C): 0.303 ± 0.11

Sequence: GGUCAGCAAUAUUACGUAAU
- self-splicing fitness (ln) (30 °C): -0.42 ± 0.11
- self-splicing fitness (ln) (37 °C): 0.68 ± 0.14

Sequence: UGGCAGCAAUAUUACGUAAA
- self-splicing fitness (ln) (30 °C): -0.723 ± 0.077
- self-splicing fitness (ln) (37 °C): -0.922 ± 0.093

Sequence: CUCCAGCAAUAUUACGCCCC
- self-splicing fitness (ln) (30 °C): -4.17 ± 0.46

Sequence: GAACAGCAAUAUUACGCUAC
- self-splicing fitness (ln) (30 °C): -4.08 ± 0.34
- self-splicing fitness (ln) (37 °C): -1.64 ± 0.37

Sequence: GAUUAGCAAUAUUACGGAGG
- self-splicing fitness (ln) (30 °C): -2.45 ± 0.18
- self-splicing fitness (ln) (37 °C): -1.81 ± 0.17
